The values that follow are results of earlier work, collected in PMC10618199.

As a reminder, the Kd is a measure of binding affinity in units of concentration.

This data set concerns the target insulin receptor site-2 (Homo sapiens) (UniProt P06213).

Sequence of insulin (P01308 90-110): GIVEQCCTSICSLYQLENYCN

Consider insulin (from UniProt P01308), for which the Kd was 400 nM.
